From the supplement of paper PMC10567573

B1: TRIM29 (parent)
chain: FAEKGELRKSIFSESRKPTVSIME

Variants of: B1
Assay: protein stability index of a GFP-peptide fusion (GPS, HEK-293T) (PSI 1-6); higher = more stable
Conditions: c terminus: a fixed tail appended
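Note: lentivirally expressed fusions sorted by FACS into six bins by GFP to DsRed ratio, PSI derived from sequencing read proportions per bin multiplied by bin number.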

Protein stability index: each site, then its substitutions
S15: N 1.64 | C 1.59 | G 1.8 | Q 2.1 | A 1.75 | F 2.3 | K 2 | Y 2.04 | I 1.56 | R 1.3 | L 1.96 | V 2.3 | D 2.26 | T 2.31 | E 2.01 | H 1.52 | W 2.29 | M 2.04 | P 2.71
F12: A 2.74 | C 2.96 | Q 3.72 | H 4.04 | M 3.49 | D 4.25 | L 2.41 | N 3.43 | E 3.84 | K 3.54 | R 3.66 | I 3.39 | V 3.1 | G 2.59 | S 3.69 | T 3.54 | W 1.14 | P 3.96 | Y 2.04
R16: N 1.5 | K 2.35 | P 1.96 | M 2.02 | T 1.6 | H 1.74 | G 1.99 | S 1.8 | I 1.78 | W 2.29 | E 1.3 | Q 1.6 | A 1.49 | Y 1.4 | V 2.18 | L 1.99 | F 1.96 | C 1.69 | D 2.04
I11: L 1.9 | F 2.74 | C 1.64 | D 3.69 | H 2.97 | W 2.77 | Q 3.33 | N 3.35 | S 3.09 | Y 1.7 | P 2.51 | E 3.26 | A 2.05 | M 1.53 | T 2.65 | G 3.92 | R 2.71 | V 1.86 | K 3.22
K17: S 1.82 | Q 1.68 | A 2.43 | I 2 | V 2.46 | R 1.53 | W 2.22 | H 2.11 | F 2.05 | Y 2.23 | T 2.12 | C 1.28 | G 1.99 | N 1.39 | P 1.54 | E 1.67 | L 2.86 | M 1.33 | D 1.65
S10: P 2.27 | L 1.47 | D 2.12 | H 1.84 | G 2 | A 1.91 | T 1.82 | M 2.12 | I 2.48 | Q 1.52 | K 2.17 | C 1.53 | Y 2.04 | N 1.76 | E 2.12 | W 2.35 | R 1.35 | F 2.32 | V 2.46
R8: A 3.85 | D 2.55 | Q 1.93 | Y 2.54 | H 1.54 | V 2.74 | N 2.44 | P 1.89 | L 2.32 | M 1.81 | K 2.23 | S 1.47 | F 2.64 | G 1.56 | W 2.85 | E 2 | I 2.81 | T 2 | C 2.08
G5: C 1.15 | F 2.17 | N 1.93 | P 2.46 | M 1.72 | A 1.99 | Q 2.02 | I 2.31 | Y 2.53 | H 2.3 | V 1.66 | R 1.7 | K 1.78 | W 2.04 | S 2.11 | D 1.8 | L 2.37 | T 1.64 | E 1.69
K9: A 1.77 | D 1.85 | R 2.62 | L 3.5 | E 1.84 | P 2.23 | F 1.39 | C 3.57 | G 2.3 | Y 2.36 | T 1.93 | H 2.16 | V 2.74 | I 3.48 | S 1.88 | M 2.02 | N 1.87 | Q 1.8
E14: S 2.31 | V 2.05 | L 1.91 | K 1.99 | G 1.78 | I 2.32 | M 1.59 | Y 1.7 | Q 1.54 | C 2.21 | F 1.85 | P 3.31 | W 1.76 | H 2.05 | A 2.01 | T 2.63 | N 1.95 | D 1.54 | R 1.49
K4: L 2.38 | Y 2.16 | W 3.24 | A 1.87 | I 2.1 | Q 1.71 | M 1.39 | E 2.33 | V 2.38 | D 2.06 | F 1.77 | S 1.8 | C 2.24 | R 2.08 | G 2.02 | H 1.75 | N 2.53 | P 1.8 | T 2.14
A2: T 2.36 | V 2.1 | Y 2.88 | W 2.74
P18: E 2.35 | W 2.83 | Y 2.79 | I 2.06 | L 1.98 | H 1.94 | V 2.5 | Q 1.34 | T 1.85 | M 2.1 | S 1.46 | G 2.59 | A 2.01 | R 2.32 | D 2.32 | K 1.41 | F 2.31 | C 2.21 | N 2.59
S13: H 1.64 | K 2.21 | N 1.75 | Y 2.08 | P 3.18 | A 2.1 | V 2.58 | G 1.7 | W 2.55 | E 2.71 | M 2.76 | T 1.87 | I 1.45 | C 1.67 | Q 1.75 | R 2.19 | D 2.42 | F 2.01 | L 1.84
V20: D 2.02 | F 1.97 | H 2.64 | G 1.7 | I 2.12 | E 2.79 | C 2.13 | A 1.42
E3: C 1.92 | S 3.11 | D 1.9 | T 2.59 | M 2.09 | K 2.29 | N 2.29 | Y 1.88 | I 2.43 | P 2.79 | Q 2.05 | H 1.66 | W 1.83 | A 3.08 | V 1.15 | G 2.95 | F 1.42 | R 2.27 | L 1.04
T19: A 3 | Q 2.26 | R 2.02 | D 2.15 | I 1.17 | G 1.61 | P 2.39 | Y 2 | F 1.59 | M 2.36 | V 2.56 | S 2.74 | C 2.39 | E 1.8 | H 1.75 | K 2.58 | W 2.94 | L 1.6 | N 1.72
E6: Q 1.45 | C 2.57 | P 2.78 | K 1.85 | I 1.82 | L 2.78 | V 1.93 | R 1.64 | G 1.47 | T 1.56 | Y 1.84 | S 1.8 | M 1.78 | A 1.77 | W 2.02 | N 1.36 | D 1.44 | F 2.65 | H 2.38
L7: Q 2.31 | D 1.78 | F 2.21 | W 3.9 | E 3.15 | K 1.7 | S 2.22 | Y 2.08 | T 2.32 | N 1.55 | A 2.25 | C 2.8 | M 2.02 | H 2.44 | I 2.18 | V 1.62 | R 1.82 | G 1.46 | P 2.52
